US9029105B2, “Microorganism producing L-methionine precursor and method of producing L-methionine and organic acid from the L-methionine precursor” (CJ Cheiljedang Corporation, priority 2006, dated 2015)

B1: Leptospira meyeri MetY: O-acetylhomoserine sulfhydrylase derived from Leptospira meyeri (protein, UniProt P94890 1-442, looked up)
O-acetyl-L-homoserine …: MVGPSGESMPRNFKPETIALHGGQEPDPTTTSRAVPLYQTTSYVFKDTDHAARLFGLQEFGNIYTRLMNPTTDVLEKRVAALEGGVAALATASGQSAEMLALLNIVEAGQEIVASSSLYGGTYNLLHYTFPKLGIKVHFVDQSDPENFRKASNDKTRAFYAETLGNPKLDTLDIAAVSKVAKEVGVPLVIDNTMPSPYLVNPLKHGADIVVHSLTKFLGGHGTSIGGIIIDGGSFNWGNGKFKNFTEPDPSYHGLKFWEVFGKFEPFGGVNIAFILKARVQGLRDLGPAISPFNAWQILQGVETLPLRMERHSGNALKVAEFLQKHPKIEWVNYPGLSTDKNYATAKKYHERGLFGAIVGFEIKGGVEKAKKFIDGLELFSLLANIGDAKSLAIHPASTTHQQLTGPEQISAGVTPGFVRLSVGLENIDDILVDLEEALKNI
B2: Pseudomonas aurogenosa MetZ: O-succinylhomoserine sulfhydrylase derived from Pseudomonas aeruginosa, cell extract enzyme solution (protein, UniProt P55218 1-403, looked up)
O-succinylhomoserine …: MTQDWDAGRLDSDLEGAAFDTLAVRAGQRRTPEGEHGEALFTTSSYVFRTAADAAARFAGEVPGNVYSRYTNPTVRTFEERIAALEGAEQAVATASGMSAILALVMSLCSSGDHVLVSRSVFGSTISLFDKYFKRFGIQVDYPPLSDLAAWEAACKPNTKLFFVESPSNPLAELVDIAALAEIAHAKGALLAVDNCFCTPALQQPLKLGADVVIHSATKYIDGQGRGMGGVVAGRGEQMKEVVGFLRTAGPTLSPFNAWLFLKGLETLRIRMQAHSASALALAEWLERQPGIERVYYAGLPSHPQHELARRQQSGFGAVVSFDVKGGRDAAWRFIDATRMVSITTNLGDTKTTIAHPATTSHGRLSPEDRARAGIGDSLIRVAVGLEDLDDLKADMARGLAAL
modifications: cell extract
notes: O-succinylhomoserine sulfhydrylase derived from Pseudomonas aeruginosa, cell extract enzyme solution
B3: Escherichia Coli K12 MetB: cystathionine gamma synthase derived from E. coli, cell extract enzyme solution (protein, UniProt P00935 1-386, looked up)
Cystathionine gamma-synthase: MTRKQATIAVRSGLNDDEQYGCVVPPIHLSSTYNFTGFNEPRAHDYSRRGNPTRDVVQRALAELEGGAGAVLTNTGMSAIHLVTTVFLKPGDLLVAPHDCYGGSYRLFDSLAKRGCYRVLFVDQGDEQALRAALAEKPKLVLVESPSNPLLRVVDIAKICHLAREVGAVSVVDNTFLSPALQNPLALGADLVLHSCTKYLNGHSDVVAGVVIAKDPDVVTELAWWANNIGVTGGAFDSYLLLRGLRTLVPRMELAQRNAQAIVKYLQTQPLVKKLYHPSLPENQGHEIAARQQKGFGAMLSFELDGDEQTLRRFLGGLSLFTLAESLGGVESLISHAATMTHAGMAPEARAAAGISETLLRISTGIEDGEDLIADLENGFRAANKG

Assays:
Assay type in all cases: biochemical
[1] = Conversion reaction of O-acetylhomoserine with methylmercaptan by enzyme solutions (DTNB, OD415); details: OAHS as a substrate
Method: (§1) First, O-succinylhomoserine (Sigma, USA) was dissolved in 0.1 M potassium phosphate buffer (pH 7.5) with the concentration of 3 mM. Pyridoxal 5′-phosphate (Sigma, USA) used as a coenzyme was added into the reaction solution with the final concentration of 10 μM. Methylmercaptan (Methylmercaptan, Tokyo Kasei Organic Chemicals, Japan) used as another substrate was added into the reaction solution with the final concentration of 2 mM. 1 ml of the reaction solution was placed in 37° C., to which 10 μL of each enzyme solution (protein conc.: 5 mg/ml) was added. 100 μL of the reaction solution was collected every 5-10 minutes and added into 900 μL of 4 mg/ml DTNB (Sigma, USA) solution. OD415 was measured to confirm the on-going of the reaction.
DTNB was reacted with SH group of methylmercaptan remaining in the reaction solution and thus synthesized a yellow substance. Thus, whether the reaction was going on or not was checked by observing the disappearance of yellow color of the reaction solution resulted from the conversion reaction of methylmercaptan into methionine.
Experiment was performed with O-acetylhomoserine by the same manner as described in Example <3-20>. O-acetylhomoserine was purified from the supernatant of fermented solution. The same reaction solutions and enzyme solutions as used for the experiment with O-succinylhomoserine were used for the reaction. […]

[2] = HPLC of final methionine and acetic acid after one-hour reaction with O-acetylhomoserine; details: from O-acetylhomoserine
Method: as §1
(§2) Experiment was performed with O-acetylhomoserine by the same manner as described in Example <3-20>. O-acetylhomoserine was purified from the supernatant of fermented solution. The same reaction solutions and enzyme solutions as used for the experiment with O-succinylhomoserine were used for the reaction. […] Upon completion of one-hour reaction, HPLC was performed to confirm the final productions of methionine and […].

[3] = Feed-back inhibition of converting enzyme by methionine, OAHS as substrate; details: presence of methionine
Method: as §2
Feed-back inhibition in the presence or absence of methionine was identified by the same manner as described in Examples <3-20> and <3-21>. The reaction solutions were prepared by the same manner above and the same reaction was performed by adding or not adding 5 g/L of methionine in the each reaction solution. The reaction speed in the reaction solution without methionine was regarded as 100%, based on which the remaining activity in the presence of methionine was calculated as %.

[4] = HPLC of final methionine and succinic acid after one-hour reaction with O-succinylhomoserine; details: from O-succinylhomoserine
Method: as §1
Upon completion of one-hour reaction, HPLC was performed to confirm the final productions of methionine and succinic acid.

| Molecule | enzyme activity with O-acetylhomoserine (FIG. 6), in words [1] | amount of Acetic acid [2] [g/L] | amount of Methionine [2] [g/L] | inhibition of enzyme activity by methionine, in words [3] | amount of Methionine [4] [g/L] | amount of Succinic acid [4] [g/L] |
| --- | --- | --- | --- | --- | --- | --- |
| B1 | high enzyme activities | 0.05 | 0.15 | inhibited by methionine | – | – |
| B2 | – | – | – | – | 0.22 | 0.17 |
| B3 | – | – | – | – | 0.14 | 0.1 |
